In PMC3498133 (2012):
“And” between values parts separate entries of the source, which are not always exact repeats. Identical values can stand only once.

Target: SpcU (Pseudomonas aeruginosa, UniProt O66100 1-137)
Test: ITC

B1: ExoU (natural protein)
chain: MHIQSLGATASSLNQEPVETPSQAAHKSASLRQEPSGQGLGVALKSTPGILSGKLPESVSDVRFSSPQGQGESRTLTDSAGPRQITLRQFENGVTELQLSRPPLTSLVLSGGGAKGAAYPGAMLALEEKGMLDGIRSMSGSSAGGITAALLASGMSPAAFKTLSDKMDLISLLDSSNKKLKLFQHISSEIGASLKKGLGNKIGGFSELLLNVLPRIDSRAEPLERLLRDETRKAVLGQIATHPEVARQPTVAAIASRLQSGSGVTFGDLDRLSAYIPQIKTLNITGTAMFEGRPQLVVFNASHTPDLEVAQAAHISGSFPGVFQKVSLSDQPYQAGVEWTEFQDGGVMINVPVPEMIDKNFDSGPLRRNDNLILEFEGEAGEVAPDRGTRGGALKGWVVGVPALQAREMLQLEGLEELREQTVVVPLKSERGDFSGMLGGTLNFTMPDEIKAHLQERLQERVGEHLEKRLQASERHTFASLDEALLALDDSMLTSVAQQNPEITDGAVAFRQKARDAFTELTVAIVSANGLAGRLKLDEAMRSALQRLDALADTPERLAWLAAELNHADNVDHQQLLDAMRGQTVQSPVLAAALAEAQRRKVAVIAENIRKEVIFPSLYRPGQPDSNVALLRRAEEQLRHATSPAEINQALNDIVDNYSARGFLRFGKPLSSTTVEMAKAWRNKEFT
Ka: 3.08e+07 M⁻¹ and 1.77e+07 M⁻¹
